# Assay results taken from patent US6998260.
# Target: human fibrinogen (UniProt P02671)
# Sequence (P02671 20-629, chain 1 of 3): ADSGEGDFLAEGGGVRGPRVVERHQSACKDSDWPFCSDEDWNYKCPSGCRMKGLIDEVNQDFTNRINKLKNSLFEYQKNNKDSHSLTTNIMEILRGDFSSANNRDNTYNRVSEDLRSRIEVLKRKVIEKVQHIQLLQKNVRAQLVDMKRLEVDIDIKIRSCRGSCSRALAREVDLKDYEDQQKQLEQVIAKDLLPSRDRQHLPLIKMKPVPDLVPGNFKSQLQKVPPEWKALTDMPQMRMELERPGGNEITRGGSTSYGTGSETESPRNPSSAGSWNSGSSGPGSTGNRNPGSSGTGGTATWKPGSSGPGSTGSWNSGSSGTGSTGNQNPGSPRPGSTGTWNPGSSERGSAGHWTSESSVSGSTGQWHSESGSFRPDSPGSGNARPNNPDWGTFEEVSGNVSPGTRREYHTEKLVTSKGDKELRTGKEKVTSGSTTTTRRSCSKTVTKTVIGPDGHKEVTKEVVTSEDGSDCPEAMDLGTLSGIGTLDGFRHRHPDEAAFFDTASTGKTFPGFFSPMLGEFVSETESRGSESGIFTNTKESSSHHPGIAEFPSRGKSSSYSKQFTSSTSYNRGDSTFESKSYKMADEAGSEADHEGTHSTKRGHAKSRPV
# Sequence (chain, as listed by the source, chain 2 of 3): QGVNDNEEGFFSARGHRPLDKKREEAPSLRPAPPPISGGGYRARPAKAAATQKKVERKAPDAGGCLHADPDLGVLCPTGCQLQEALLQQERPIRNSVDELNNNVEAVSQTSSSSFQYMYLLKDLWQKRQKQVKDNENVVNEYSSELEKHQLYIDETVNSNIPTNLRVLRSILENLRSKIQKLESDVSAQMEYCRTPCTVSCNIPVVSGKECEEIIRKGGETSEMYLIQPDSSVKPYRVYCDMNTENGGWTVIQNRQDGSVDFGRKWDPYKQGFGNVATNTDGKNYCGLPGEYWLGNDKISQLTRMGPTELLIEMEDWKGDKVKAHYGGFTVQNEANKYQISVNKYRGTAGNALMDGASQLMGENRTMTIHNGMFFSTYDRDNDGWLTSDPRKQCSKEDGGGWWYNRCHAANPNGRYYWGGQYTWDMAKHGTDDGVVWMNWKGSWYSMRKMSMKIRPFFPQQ
# Sequence (chain, as listed by the source, chain 3 of 3): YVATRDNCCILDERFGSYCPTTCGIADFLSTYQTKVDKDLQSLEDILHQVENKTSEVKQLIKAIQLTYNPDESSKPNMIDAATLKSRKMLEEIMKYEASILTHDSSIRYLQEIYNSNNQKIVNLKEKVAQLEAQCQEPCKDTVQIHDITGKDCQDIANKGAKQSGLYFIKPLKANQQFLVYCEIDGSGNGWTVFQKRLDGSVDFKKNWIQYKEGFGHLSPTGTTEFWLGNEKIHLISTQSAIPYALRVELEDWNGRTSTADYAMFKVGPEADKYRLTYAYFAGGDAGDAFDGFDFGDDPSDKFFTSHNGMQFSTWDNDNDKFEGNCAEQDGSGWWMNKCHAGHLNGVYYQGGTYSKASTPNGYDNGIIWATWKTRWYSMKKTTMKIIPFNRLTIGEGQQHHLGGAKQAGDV
# recombinant human β-II tryptase (from pPIC9-HumTryN102K, expressed in Pichia pastoris), sequence (chain, as listed by the source): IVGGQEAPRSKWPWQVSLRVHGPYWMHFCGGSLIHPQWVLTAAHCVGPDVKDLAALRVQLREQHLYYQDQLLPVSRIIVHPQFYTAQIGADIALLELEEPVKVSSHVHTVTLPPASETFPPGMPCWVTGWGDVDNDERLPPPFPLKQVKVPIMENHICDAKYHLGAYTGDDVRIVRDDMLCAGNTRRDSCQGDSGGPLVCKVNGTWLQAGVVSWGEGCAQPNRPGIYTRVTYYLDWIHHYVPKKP
# recombinant human β-I tryptase (from pPIC9-HumTry, expressed in Pichia pastoris), sequence (chain, as listed by the source): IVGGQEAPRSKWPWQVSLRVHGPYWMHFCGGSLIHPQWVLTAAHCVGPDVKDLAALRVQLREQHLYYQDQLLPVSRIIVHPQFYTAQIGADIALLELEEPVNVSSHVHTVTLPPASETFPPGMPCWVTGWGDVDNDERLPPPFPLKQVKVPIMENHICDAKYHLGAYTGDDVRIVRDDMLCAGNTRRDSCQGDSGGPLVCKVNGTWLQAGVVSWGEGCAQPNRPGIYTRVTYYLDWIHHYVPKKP
row,Substance,fibrinogen cleavage (SDS-PAGE of fibrinogen subunits after 60 min incubation)
1,β-tryptase isolated from a cadaver (native β),Native β-tryptase was less efficient at fibrinogeneolysis
2,"recombinant human β-I tryptase (from pPIC9-HumTry, expressed in Pichia pastoris)",The a and β subunits were efficiently hydrolyzed by the recombinant β-I and β-II tryptase enzymes even during cold incubation.
3,"recombinant human β-II tryptase (from pPIC9-HumTryN102K, expressed in Pichia pastoris)",The a and β subunits were efficiently hydrolyzed by the recombinant β-I and β-II tryptase enzymes even during cold incubation.
